Experiments:
Test in all cases: cell-based or functional assay
[1] = biological target: recombinant human Factor IXa R150A (human) (UniProt P00740)
[2] = biological target: recombinant human Factor IXa wild-type (human) (UniProt P00740)
[3] = biological target: recombinant human Factor IXa K126A/K132A (human) (UniProt P00740)
[4] = biological target: recombinant human Factor IXa K126A (human) (UniProt P00740)
[5] = biological target: recombinant human Factor IXa K126A/K132A/R150A (human) (UniProt P00740)
[6] = biological target: recombinant human Factor IXa K126A/R150A (human) (UniProt P00740)
[7] = biological target: recombinant human Factor IXa K132A/R150A (human) (UniProt P00740)
[8] = biological target: human plasma-derived Factor IXa (human) (UniProt P00740)
[9] = biological target: recombinant human Factor IXa K132A (human) (UniProt P00740)

k2, inhibition of FIXa by ATIII/Fond (460 nM fondaparinux) [1]: 71.7 M⁻¹ s⁻¹ | k2, inhibition of FIXa by ATIII/UFH (0.24 U/mL) [1]: 262 M⁻¹ s⁻¹ | k2, inhibition of FIXa by ATIII, no heparin [2]: 51.7 M⁻¹ s⁻¹ | k2, inhibition of FIXa by ATIII/Fond (460 nM fondaparinux) [2]: 3290 M⁻¹ s⁻¹ | k2, inhibition of FIXa by ATIII/UFH (0.24 U/mL) [2]: 4330 M⁻¹ s⁻¹ | k2, inhibition of FIXa by ATIII/Fond (460 nM fondaparinux) [3]: 2640 M⁻¹ s⁻¹ | k2, inhibition of FIXa by ATIII/UFH (0.24 U/mL) [3]: 423 M⁻¹ s⁻¹ | k2, inhibition of FIXa by ATIII/Fond (460 nM fondaparinux) [4]: 3300 M⁻¹ s⁻¹ | k2, inhibition of FIXa by ATIII/UFH (0.24 U/mL) [4]: 1560 M⁻¹ s⁻¹ | k2, inhibition of FIXa by ATIII/Fond (460 nM fondaparinux) [5]: 68.3 M⁻¹ s⁻¹ | k2, inhibition of FIXa by ATIII/UFH (0.24 U/mL) [5]: 6.67 M⁻¹ s⁻¹ | k2, inhibition of FIXa by ATIII/Fond (460 nM fondaparinux) [6]: 63.3 M⁻¹ s⁻¹ | k2, inhibition of FIXa by ATIII/Fond (460 nM fondaparinux) [7]: 68.3 M⁻¹ s⁻¹ | k2, inhibition of FIXa by ATIII/Fond (460 nM fondaparinux) [8]: 3520 M⁻¹ s⁻¹ | k2, inhibition of FIXa by ATIII/UFH (0.24 U/mL) [8]: 3430 M⁻¹ s⁻¹ | k2, inhibition of FIXa by ATIII/Fond (460 nM fondaparinux) [9]: 3250 M⁻¹ s⁻¹ | k2, inhibition of FIXa by ATIII/UFH (0.24 U/mL) [9]: 3740 M⁻¹ s⁻¹
Substance: human plasma-derived antithrombin (from UniProt P01008 33-464)
